# Results as given in patent US20150246959A1 (US Dept. of Health and Human Services, published 2015).
# Assays:
# Test in all cases: cell-based or functional assay
# [1] = target: MAGE-A3: 243-255 peptide presented by HLA-DP*0401 on 293-CIITA cells (human, UniProt P20036 29-260)
# [2] = target: MAGE-A6: 248-258 peptide presented by HLA-DP*0401 on 293-CIITA cells (human, UniProt P20036 29-260)
# [3] = target: MAGE-A4/A9: 249-259 peptide presented by HLA-DP*0401 on 293-CIITA cells (human, UniProt P20036 29-260)
# [4] = target: MAGE-A8: 251-261 peptide presented by HLA-DP*0401 on 293-CIITA cells (human, UniProt P20036 29-260)
# [5] = target: MAGE-A2/A12: 248-258 peptide presented by HLA-DP*0401 on 293-CIITA cells (human, UniProt P20036 29-260)
# [6] = target: MAGE-B16: 252-262 peptide presented by HLA-DP*0401 on 293-CIITA cells (human, UniProt P20036 29-260)
# [7] = target: MAGE-A3: 243-254 peptide presented by HLA-DP*0401 on 293-CIITA cells (human, UniProt P20036 29-260)
# [8] = target: MAGE-A3: 249-258 peptide presented by HLA-DP*0401 on 293-CIITA cells (human, UniProt P20036 29-260)
# [9] = target: MAGE-L2: 582-597 peptide presented by HLA-DP*0401 on 293-CIITA cells (human, UniProt P20036 29-260)
# [10] = target: MAGE-G1: 220-235 peptide presented by HLA-DP*0401 on 293-CIITA cells (human, UniProt P20036 29-260)
# [11] = target: MAGE-A3: 243-258 peptide presented by HLA-DP*0401 on 293-CIITA cells (human, UniProt P20036 29-260)
# [12] = target: MAGE-A3: 245-258 peptide presented by HLA-DP*0401 on 293-CIITA cells (human, UniProt P20036 29-260)
# [13] = target: MAGE-A3: 247-258 peptide presented by HLA-DP*0401 on 293-CIITA cells (human, UniProt P20036 29-260)
# [14] = target: MAGE-D2: 413-428 peptide presented by HLA-DP*0401 on 293-CIITA cells (human, UniProt P20036 29-260)
# [15] = target: Necdin: 237-247 peptide presented by HLA-DP*0401 on 293-CIITA cells (human, UniProt P20036 29-260)
# [16] = target: MAGE-A3: 243-256 peptide presented by HLA-DP*0401 on 293-CIITA cells (human, UniProt P20036 29-260)
# [17] = target: MAGE-B10: 250-260 peptide presented by HLA-DP*0401 on 293-CIITA cells (human, UniProt P20036 29-260)
# [18] = target: MAGE-B2: 250-260 peptide presented by HLA-DP*0401 on 293-CIITA cells (human, UniProt P20036 29-260)
# [19] = target: MAGE-D4: 300-315 peptide presented by HLA-DP*0401 on 293-CIITA cells (human, UniProt P20036 29-260)
# [20] = target: MAGE-A1/B4: 241-251 peptide presented by HLA-DP*0401 on 293-CIITA cells (human, UniProt P20036 29-260)
# [21] = target: MAGE-C1: 113-123 peptide presented by HLA-DP*0401 on 293-CIITA cells (human, UniProt P20036 29-260)
# [22] = target: MAGE-A3: 246-258 peptide presented by HLA-DP*0401 on 293-CIITA cells (human, UniProt P20036 29-260)
# [23] = target: MAGE-A3: 243-253 peptide presented by HLA-DP*0401 on 293-CIITA cells (human, UniProt P20036 29-260)
# [24] = target: MAGE-A3: 248-258 peptide presented by HLA-DP*0401 on 293-CIITA cells (human, UniProt P20036 29-260)
binder,measurement,setting,value
6F9mC TCR (TCR) TCR alpha: QTVTQSQPEMSVQEAETVTLSCTYDTSESDYYLFWYKQPPSRQMILVIRQEAYKQQNATENRFSVNFQKAAKSFSLKISDSQLGDAAMYFCALRSSGTYKYIFGTGTRLKVLANIQNPEPAVYQLKDPRSQDSTLCLFTDFDSQINVPKTMESGTFITDKTVLDMKAMDSKSNGAIAWSNQTSFTCQDIFKETNATYPSSDVPCDATLTEKSFETDMNLNFQNLSVMGLRILLLKVAGFNLLMTLRLWSS TCR beta: GAGVSQSPSNKVTEKGKDVELRCDPISGHTALYWYRQSLGQGLEFLIYFQGNSAPDKSGLPSDRFSAERTGGSVSTLTIQRTQQEDSAVYLCASIRTGPFFSGNTIYFGEGSWLTVVEDLRNVTPPKVSLFEPSKAEIANKQKATLVCLARGFFPDHVELSWWVNGKEVHSGVSTDPQAYKESNYSYCLSSRLRVSATFWHNPRNHFRCQVQFHGLSEEDKWPEGSPKPVTQNISAEAWGRADCGITSASYHQGVLSATILYEILLGKATLYAVLVSGLVLMAMVKRKNS,IFN-g (pg/ml); CD4+ T cells of PBMC-1; 293-CIITA pulsed with peptide,[1],137 pg/mL
same,IFN-g (pg/ml); CD4+ T cells of PBMC-2; 293-CIITA pulsed with peptide,[1],117 pg/mL
same,IFN-g (pg/ml); CD4+ T cells of PBMC-1; 293-CIITA pulsed with peptide,[2],11800 pg/mL
same,IFN-g (pg/ml); CD4+ T cells of PBMC-2; 293-CIITA pulsed with peptide,[2],8370 pg/mL
same,IFN-g (pg/ml); CD4+ T cells of PBMC-1; 293-CIITA pulsed with peptide,[3],23 pg/mL
same,IFN-g (pg/ml); CD4+ T cells of PBMC-2; 293-CIITA pulsed with peptide,[3],26 pg/mL
same,IFN-g (pg/ml); CD4+ T cells of PBMC-1; 293-CIITA pulsed with peptide,[4],58 pg/mL
same,IFN-g (pg/ml); CD4+ T cells of PBMC-2; 293-CIITA pulsed with peptide,[4],41 pg/mL
same,IFN-g (pg/ml); CD4+ T cells of PBMC-1; 293-CIITA pulsed with peptide,[5],66 pg/mL
same,IFN-g (pg/ml); CD4+ T cells of PBMC-2; 293-CIITA pulsed with peptide,[5],56 pg/mL
same,IFN-g (pg/ml); CD4+ T cells of PBMC-1; 293-CIITA pulsed with peptide,[6],27 pg/mL
same,IFN-g (pg/ml); CD4+ T cells of PBMC-2; 293-CIITA pulsed with peptide,[6],28 pg/mL
same,IFN-g (pg/ml); CD4+ T cells of PBMC-1; 293-CIITA pulsed with peptide,[7],0 pg/mL
same,IFN-g (pg/ml); CD4+ T cells of PBMC-2; 293-CIITA pulsed with peptide,[7],39 pg/mL
same,IFN-g (pg/ml); CD4+ T cells of PBMC-1; 293-CIITA pulsed with peptide,[8],1640 pg/mL
same,IFN-g (pg/ml); CD4+ T cells of PBMC-2; 293-CIITA pulsed with peptide,[8],2030 pg/mL
same,IFN-g (pg/ml); CD4+ T cells of PBMC-1; 293-CIITA pulsed with peptide,[9],56 pg/mL
same,IFN-g (pg/ml); CD4+ T cells of PBMC-2; 293-CIITA pulsed with peptide,[9],107 pg/mL
same,IFN-g (pg/ml); CD4+ T cells of PBMC-1; 293-CIITA pulsed with peptide,[10],29 pg/mL
same,IFN-g (pg/ml); CD4+ T cells of PBMC-2; 293-CIITA pulsed with peptide,[10],33 pg/mL
same,IFN-g (pg/ml); CD4+ T cells of PBMC-1; 293-CIITA pulsed with peptide,[11],15200 pg/mL
same,IFN-g (pg/ml); CD4+ T cells of PBMC-2; 293-CIITA pulsed with peptide,[11],17500 pg/mL
same,IFN-g (pg/ml); CD4+ T cells of PBMC-1; 293-CIITA pulsed with peptide,[12],15000 pg/mL
same,IFN-g (pg/ml); CD4+ T cells of PBMC-2; 293-CIITA pulsed with peptide,[12],17800 pg/mL
same,IFN-g (pg/ml); CD4+ T cells of PBMC-1; 293-CIITA pulsed with peptide,[13],10600 pg/mL
same,IFN-g (pg/ml); CD4+ T cells of PBMC-2; 293-CIITA pulsed with peptide,[13],13300 pg/mL
same,IFN-g (pg/ml); CD4+ T cells of PBMC-1; 293-CIITA pulsed with peptide,[14],43 pg/mL
same,IFN-g (pg/ml); CD4+ T cells of PBMC-2; 293-CIITA pulsed with peptide,[14],223 pg/mL
same,IFN-g (pg/ml); CD4+ T cells of PBMC-1; 293-CIITA pulsed with peptide,[15],22 pg/mL
same,IFN-g (pg/ml); CD4+ T cells of PBMC-2; 293-CIITA pulsed with peptide,[15],32 pg/mL
same,IFN-g (pg/ml); CD4+ T cells of PBMC-1; 293-CIITA pulsed with peptide,[16],1820 pg/mL
same,IFN-g (pg/ml); CD4+ T cells of PBMC-2; 293-CIITA pulsed with peptide,[16],2490 pg/mL
same,IFN-g (pg/ml); CD4+ T cells of PBMC-1; 293-CIITA pulsed with peptide,[17],18 pg/mL
same,IFN-g (pg/ml); CD4+ T cells of PBMC-2; 293-CIITA pulsed with peptide,[17],34 pg/mL
same,IFN-g (pg/ml); CD4+ T cells of PBMC-1; 293-CIITA pulsed with peptide,[18],0 pg/mL
same,IFN-g (pg/ml); CD4+ T cells of PBMC-2; 293-CIITA pulsed with peptide,[18],20 pg/mL
same,IFN-g (pg/ml); CD4+ T cells of PBMC-1; 293-CIITA pulsed with peptide,[19],234 pg/mL
same,IFN-g (pg/ml); CD4+ T cells of PBMC-2; 293-CIITA pulsed with peptide,[19],268 pg/mL
same,IFN-g (pg/ml); CD4+ T cells of PBMC-1; 293-CIITA pulsed with peptide,[20],126 pg/mL
same,IFN-g (pg/ml); CD4+ T cells of PBMC-2; 293-CIITA pulsed with peptide,[20],84 pg/mL
same,IFN-g (pg/ml); CD4+ T cells of PBMC-1; 293-CIITA pulsed with peptide,[21],0 pg/mL
same,IFN-g (pg/ml); CD4+ T cells of PBMC-2; 293-CIITA pulsed with peptide,[21],27 pg/mL
same,IFN-g (pg/ml); CD4+ T cells of PBMC-1; 293-CIITA pulsed with peptide,[22],12700 pg/mL
same,IFN-g (pg/ml); CD4+ T cells of PBMC-2; 293-CIITA pulsed with peptide,[22],16200 pg/mL
same,IFN-g (pg/ml); CD4+ T cells of PBMC-1; 293-CIITA pulsed with peptide,[23],40 pg/mL
same,IFN-g (pg/ml); CD4+ T cells of PBMC-2; 293-CIITA pulsed with peptide,[23],45 pg/mL
same,IFN-g (pg/ml); CD4+ T cells of PBMC-1; 293-CIITA pulsed with peptide,[24],9000 pg/mL
same,IFN-g (pg/ml); CD4+ T cells of PBMC-2; 293-CIITA pulsed with peptide,[24],8700 pg/mL
